Assay results: patent US20120156193A1

Biological target: A beta 1-40 oligomer (synthetic A beta1-40, HCl form, 0.1 mg/ml in PBS, incubated at 37 degrees C for one hour) (UniProt P05067)
Experiment: SPR, Biacore 3000, A beta oligomer on CM5 chip, antibody as analyte

For “Anti-A beta antibody 6E10 (Covance Immuno-Technologies)”, the Kd was 2.91 nM, the koff was 0.000168 s⁻¹ and the kon was 57800 M⁻¹ s⁻¹.
